Data from patent publication US20260092097A1 (ALTOR BIOSCIENCE, published 2026).

T1: IL-15 receptor (IL-15RβγC) on 32Dβ cells (human; mouse, UniProt P14784 27-551; P34902 23-369)
T1 sequence (looked up) 1: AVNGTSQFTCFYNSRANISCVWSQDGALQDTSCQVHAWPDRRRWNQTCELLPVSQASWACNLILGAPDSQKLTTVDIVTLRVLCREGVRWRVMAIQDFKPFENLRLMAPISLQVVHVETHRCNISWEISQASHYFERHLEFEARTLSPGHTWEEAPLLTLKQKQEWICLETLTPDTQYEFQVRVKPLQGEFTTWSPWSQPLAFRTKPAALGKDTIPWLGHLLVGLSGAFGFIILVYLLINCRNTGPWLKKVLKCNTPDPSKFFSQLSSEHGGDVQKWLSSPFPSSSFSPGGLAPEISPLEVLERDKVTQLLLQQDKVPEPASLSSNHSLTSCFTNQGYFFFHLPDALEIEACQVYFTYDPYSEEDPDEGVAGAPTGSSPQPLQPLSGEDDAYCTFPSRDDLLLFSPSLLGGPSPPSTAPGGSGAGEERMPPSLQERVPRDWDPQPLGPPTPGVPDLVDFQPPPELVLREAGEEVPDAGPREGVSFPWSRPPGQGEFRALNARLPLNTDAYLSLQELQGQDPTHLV
T1 sequence (looked up) 2: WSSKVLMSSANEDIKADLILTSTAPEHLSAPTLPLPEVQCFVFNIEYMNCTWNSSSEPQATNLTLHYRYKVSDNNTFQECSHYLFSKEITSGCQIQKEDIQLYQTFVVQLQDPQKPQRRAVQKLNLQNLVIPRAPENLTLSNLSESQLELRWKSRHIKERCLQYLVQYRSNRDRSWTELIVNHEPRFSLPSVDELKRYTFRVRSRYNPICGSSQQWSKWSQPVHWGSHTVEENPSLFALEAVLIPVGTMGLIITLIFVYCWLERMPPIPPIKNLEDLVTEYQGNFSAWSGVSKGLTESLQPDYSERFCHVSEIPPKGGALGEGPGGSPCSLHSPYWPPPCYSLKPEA

B1: IL-15N72D:IL-15RαSu/Fc complex (Alt-803) (Fc fusion)
chain 1: PELLGG
chain 2: PEAAGG
B2: in vitro assembled IL-15N72D:IL-15RαSu/Fc complex (IL-15N72D:IL-15RαSu/Fc IVA) (Fc fusion)
chain 1: PELLGG
chain 2: PEAAGG

Target: T1, IL-15 receptor (IL-15RβγC) on 32Dβ cells
Assay: cell-based or functional assay

| IL-15 dependent 32Dβ cell proliferation, EC50 [nM] | Binder |
| --- | --- |
| 0.0156 | B1 |
| 0.0158 | B2 |
